Measured values reported in patent publication US11267875B2, “Humanized anti-DKK2 antibody and uses thereof” (YALE UNIVERSITY, priority 2015, dated 2022).

B1: DKK2: recombinant DKK2 protein added to NK-92MI cells (protein)
chain: KLNSIKSSLGGETPGQAANRSAGMYQGLAFGGSKKGKNLGQAYPCSSDKECEVGRYCHSPHQGSSACMVCRRKKKRCHRDGMCCPSTRCNNGICIPVTESILTPHIPALDGTRHRDRNHGHYSNHDLGWQNLGRPHTKMSHIKGHEGDPCLRSSDCIEGFCCARHFWTKICKPVLHQGEVCTKQRKKGSHGLEIFQRCDCAKGLSCKVWKDATYSSKARLHVCQKI
B2: Wnt5a: recombinant Wnt5a protein added to NK-92MI cells (protein, UniProt P41221 62-380, looked up)
Protein Wnt-5a: IIGAQPLCSQLAGLSQGQKKLCHLYQDHMQYIGEGAKTGIKECQYQFRHRRWNCSTVDNTSVFGRVMQIGSRETAFTYAVSAAGVVNAMSRACREGELSTCGCSRAARPKDLPRDWLWGGCGDNIDYGYRFAKEFVDARERERIHAKGSYESARILMNLHNNEAGRRTVYNLADVACKCHGVSGSCSLKTCWLQLADFRKVGDALKEKYDSAAAMRLNSRGKLVQVNSRFNSPTTQDLVYIDPSPDYCVRNESTGSLGTQGRLCNKTSEGMDGCELMCCGRGYDQFKTVQTERCHCKFHWCCYVKCKKCTEIVDQFVCK

Tested on: NK-92MI cells
Assay: Granzyme B expression in human NK cell line NK92 by flow cytometry
Format: cell-based
Details: recombinant proteins 200 ng/ml, 24 hours
Experimental: Recombinant Wnt5a and DKK2 (200 ng/ml) were added to NK-92MI cells for 24 hours and Granzyme B contents were analyzed by flow cytometry.
Human NK cell line NK-92 and primary mouse NK cells from spleens and MC38-grafted tumors were tested for their expression of Granzyme and cytotoxic activity in the presence or absence of recombinant proteins of DKK2, Wnt3a, Wnt5a and DKK1, and in the presence or absence of Wnt inhibitors (including LGK-974) and GSK inhibitors (including CHIR 99021). In this manner, the regulation of NK cell activation by DKK2 and Wnt was assessed.

| Molecule | Granzyme B expression |
| --- | --- |
| B1 | inhibited Granzyme B expression |
| B2 | inhibited Granzyme B expression |
